± gives the uncertainty stated by the source.
Assay: self-splicing fitness, log relative to wild type (ln ratio); higher = more splicing; Tetrahymena group I intron in knt gene, E. coli kanamycin selection, DiMSum; sequences stand for … in CUCUCU…GGAGGGAAAAGUUAUCAGGCAUGCACCUGGUAGCUAGUCUUUAAACCAAUAGAUUGCAUCGGUUUAAAAGGCAAGACCGUCAAAUUGCGGGAAAGGGGUCAACAGCCGUUCAGUACCAAGUCUCAGGGGAAACUUUGAGAUGGCCUUGCAAAGGGUAUGGUAAUAAGCUGACGGACAUGGUCCUAACCACGCAGCCAAGUCCUAAGUCAACAGAUCUUCUGUUGAUAUGGAUGCAGUUCACAGACUAAAUGUCGGUCGGGGAAGAUGUAUUCUUCUCAUAAGAUAUAGUCGGACCUCUCCUUAAUGGGAGCUAGCGGAUGAAGUGAUGCAACACUGGAGCCGCUGGGAACUAAUUUGUAUGCGAAAGUAUAUUGAUUAGUUUUGGAGUACUCGUGGUCG
Method in brief: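 A randomised library covering all eight P1ex-region intron nucleotides was built with the intron in the knt kanamycin-resistance gene on pET-22b(+) and held in E. coli BL21(DE3). Cells were grown overnight at 37°C or 30°C on LB agar, with or without 25 μg/mL kanamycin, plus 100 μg/mL carbenicillin, 50 μM IPTG and 0.2% rhamnose, and pooled colonies were amplicon-sequenced on an Illumina HiSeq 2500. DiMSum fitness is the error-weighted combination of wild-type-normalised replicate fold changes, kanamycin versus none.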

| Sequence | self-splicing fitness (ln) (30 °C) | self-splicing fitness (ln) (37 °C) |
| --- | --- | --- |
| CGUCAGCAAUAUUACGCGUC | -2.38 ± 0.42 |  |
| CGUCAGCAAUAUUACGGCAA | -1.75 ± 0.14 | -1.89 ± 0.13 |
| CGUCAGCAAUAUUACGGCCC | -1.75 ± 0.17 | -0.728 ± 0.24 |
| CGUCAGCAAUAUUACGUAAG | 0.214 ± 0.054 | 0.2 ± 0.07 |
| CGUCAGCAAUAUUACGUACC | -1.33 ± 0.13 | 0.208 ± 0.15 |
| CGUCAGCAAUAUUACGUACG | -3.6 ± 0.43 | -2.97 ± 0.37 |
| CGUCAGCAAUAUUACGUCGA | -2.18 ± 0.1 | -1.77 ± 0.14 |
| CGUCAGCAAUAUUACGUUGG | -3.57 ± 0.11 | -2.78 ± 0.16 |
| CGUGAGCAAUAUUACGAAAA |  | -2.88 ± 0.43 |
| CGUGAGCAAUAUUACGACGU | -2.12 ± 0.19 | -2.37 ± 0.18 |
| CGUGAGCAAUAUUACGAGUG | -1.24 ± 0.12 | 0.147 ± 0.16 |
| CGUGAGCAAUAUUACGAGUU | -3.88 ± 0.47 | -3.72 ± 0.36 |
| CGUGAGCAAUAUUACGCACU | -0.892 ± 0.13 | -0.687 ± 0.13 |
| CGUGAGCAAUAUUACGCAUC | -1.85 ± 0.48 | -2.43 ± 0.35 |
| CGUGAGCAAUAUUACGCGUG | -2 ± 0.13 | -0.684 ± 0.1 |
| CGUGAGCAAUAUUACGCUUC | -3.91 ± 0.41 | -3.07 ± 0.43 |
| CGUGAGCAAUAUUACGGAAG | -1.17 ± 0.1 | -1.01 ± 0.13 |
| CGUGAGCAAUAUUACGGCGA | -2.31 ± 0.36 | -0.845 ± 0.34 |
| CGUGAGCAAUAUUACGGCGC | -3.69 ± 0.34 | -2.43 ± 0.37 |
| CGUGAGCAAUAUUACGGUGA | -2.84 ± 0.31 | -2.04 ± 0.38 |
| CGUGAGCAAUAUUACGUAUA | -2.71 ± 0.18 | -1.55 ± 0.18 |
| CGUGAGCAAUAUUACGUCAU | -2.46 ± 0.21 | -2.81 ± 0.24 |
| CGUGAGCAAUAUUACGUCCG | -1.95 ± 0.16 | -0.866 ± 0.22 |
| CGUGAGCAAUAUUACGUGCA | -1.36 ± 0.13 | 0.0971 ± 0.14 |
| CGUGAGCAAUAUUACGUUGA | -2.89 ± 0.3 | -2.94 ± 0.43 |
| CGUGAGCAAUAUUACGUUGC | -2.69 ± 0.21 | -2.51 ± 0.32 |

| Sequence | self-splicing fitness (ln) (30 °C) | self-splicing fitness (ln) (37 °C) |
| --- | --- | --- |
| CGUGAGCAAUAUUACGUUGG | -2.62 ± 0.12 | -1.45 ± 0.11 |
| CGUUAGCAAUAUUACGAAAA | -2.76 ± 0.49 | -1.83 ± 0.3 |
| CGUUAGCAAUAUUACGAACC | -0.385 ± 0.069 | -0.0684 ± 0.073 |
| CGUUAGCAAUAUUACGACCU | -0.403 ± 0.2 | -0.596 ± 0.18 |
| CGUUAGCAAUAUUACGAGCA | -0.917 ± 0.09 | -0.809 ± 0.089 |
| CGUUAGCAAUAUUACGAGCC | -2.52 ± 0.21 | 0.132 ± 0.17 |
| CGUUAGCAAUAUUACGAUCA | -0.373 ± 0.16 | 0.245 ± 0.17 |
| CGUUAGCAAUAUUACGAUGA | -1.79 ± 0.13 | -0.842 ± 0.13 |
| CGUUAGCAAUAUUACGAUUG | -0.332 ± 0.073 | -0.316 ± 0.084 |
| CGUUAGCAAUAUUACGCAGC | -2.48 ± 0.25 | -3.07 ± 0.43 |
| CGUUAGCAAUAUUACGCCGC | -3.14 ± 0.3 | -2.73 ± 0.43 |
| CGUUAGCAAUAUUACGCGAC | -3.76 ± 0.26 | -1.84 ± 0.17 |
| CGUUAGCAAUAUUACGCGGC | -2.07 ± 0.23 | -2.19 ± 0.26 |
| CGUUAGCAAUAUUACGCGGG | -3.91 ± 0.24 | -3.13 ± 0.29 |
| CGUUAGCAAUAUUACGCGGU | -3.07 ± 0.19 | -3.35 ± 0.29 |
| CGUUAGCAAUAUUACGCUAG | -2.66 ± 0.17 | -1.51 ± 0.25 |
| CGUUAGCAAUAUUACGCUCU | -1.56 ± 0.14 | -1.07 ± 0.17 |
| CGUUAGCAAUAUUACGGAGU | -4.73 ± 0.31 | -3.23 ± 0.26 |
| CGUUAGCAAUAUUACGGCCA | -1.01 ± 0.29 | -2.55 ± 0.46 |
| CGUUAGCAAUAUUACGGGAG | -3.32 ± 0.2 | -2.39 ± 0.17 |
| CGUUAGCAAUAUUACGGUGC | -3.11 ± 0.23 | -2.59 ± 0.5 |
| CGUUAGCAAUAUUACGGUUA | -1.55 ± 0.21 | -1.66 ± 0.17 |
| CGUUAGCAAUAUUACGGUUC | -3.01 ± 0.38 | -1.83 ± 0.31 |
| CGUUAGCAAUAUUACGUCGG | -0.297 ± 0.1 | 0.0154 ± 0.14 |
| CGUUAGCAAUAUUACGUGAA | -2.48 ± 0.15 | -1.45 ± 0.15 |
| CGUUAGCAAUAUUACGUUUA | -2.86 ± 0.23 | -2.63 ± 0.18 |

| Sequence | self-splicing fitness (ln) (30 °C) | self-splicing fitness (ln) (37 °C) |
| --- | --- | --- |
| CUAAAGCAAUAUUACGACUC | -4.65 ± 0.46 | -2.38 ± 0.31 |
| CUAAAGCAAUAUUACGAGUA | -3.16 ± 0.3 | -2.73 ± 0.36 |
| CUAAAGCAAUAUUACGAUAU | -3.84 ± 0.19 | -3.13 ± 0.18 |
| CUAAAGCAAUAUUACGCCUC | -3.62 ± 0.21 | -1.85 ± 0.27 |
| CUAAAGCAAUAUUACGCGUG | -1.09 ± 0.075 | 0.243 ± 0.11 |
| CUAAAGCAAUAUUACGCUGC | -3.7 ± 0.47 | -2.53 ± 0.42 |
| CUAAAGCAAUAUUACGGAAU | -3.72 ± 0.24 | -2.14 ± 0.22 |
| CUAAAGCAAUAUUACGGCAU | -3.69 ± 0.27 | -3.09 ± 0.4 |
| CUAAAGCAAUAUUACGGCGC | -2.54 ± 0.21 | -2.38 ± 0.45 |
| CUAAAGCAAUAUUACGGCGG | -0.171 ± 0.064 | 0.0633 ± 0.081 |
| CUAAAGCAAUAUUACGGGCA | -3.06 ± 0.14 | -2.54 ± 0.21 |
| CUAAAGCAAUAUUACGGGUA | -4.44 ± 0.32 | -2.3 ± 0.3 |
| CUAAAGCAAUAUUACGGUGG | -0.649 ± 0.064 | -0.0443 ± 0.08 |
| CUAAAGCAAUAUUACGUCAA | -4.32 ± 0.32 | -2.08 ± 0.28 |
| CUAAAGCAAUAUUACGUCCU | -3.29 ± 0.24 | -1.92 ± 0.26 |
| CUAAAGCAAUAUUACGUCGC | -3.42 ± 0.15 | -2.63 ± 0.23 |
| CUAAAGCAAUAUUACGUCUU | -3.95 ± 0.22 | -3.24 ± 0.3 |
| CUAAAGCAAUAUUACGUGUC | -3.88 ± 0.2 | -2.85 ± 0.25 |
| CUAAAGCAAUAUUACGUUUA | -4.12 ± 0.16 | -2.81 ± 0.17 |
| CUACAGCAAUAUUACGACCU | -4.15 ± 0.46 | -0.863 ± 0.17 |
| CUACAGCAAUAUUACGACGG | -0.839 ± 0.063 | -0.265 ± 0.095 |
| CUACAGCAAUAUUACGAGAC | -4.15 ± 0.2 | -2.59 ± 0.16 |
| CUACAGCAAUAUUACGAUCU | -4.26 ± 0.37 | -1.9 ± 0.45 |
| CUACAGCAAUAUUACGCAAU | -3.8 ± 0.4 | -2.86 ± 0.4 |
| CUACAGCAAUAUUACGCCAC | -3.68 ± 0.33 |  |

Reference: the supplement of paper PMC7877785
